Columns and labels:
[1] = test system: C/EBPbeta isoform LIP (Flag-LIP), P17676-3; test: competition EMSA; details: 20 mM HEPES pH 8.0, 1 mM MgCl2, 60 mM KCl, 0.1 mM EDTA, 15% glycerol, 1 ug poly dI-dC, 8 ug nuclear extract; 30 min room temperature then 15 min 4 C; gel at …
[2] = test system: C/EBPbeta isoform LAP, P17676-2; test: competition EMSA; details: 20 mM HEPES pH 8.0, 1 mM MgCl2, 60 mM KCl, 0.1 mM EDTA, 15% glycerol, 1 ug poly dI-dC, 8 ug nuclear extract; 30 min room temperature then 15 min 4 C; gel at …
Chain of C/EBPbeta isoform LAP, P17676-2 (P17676 24-345): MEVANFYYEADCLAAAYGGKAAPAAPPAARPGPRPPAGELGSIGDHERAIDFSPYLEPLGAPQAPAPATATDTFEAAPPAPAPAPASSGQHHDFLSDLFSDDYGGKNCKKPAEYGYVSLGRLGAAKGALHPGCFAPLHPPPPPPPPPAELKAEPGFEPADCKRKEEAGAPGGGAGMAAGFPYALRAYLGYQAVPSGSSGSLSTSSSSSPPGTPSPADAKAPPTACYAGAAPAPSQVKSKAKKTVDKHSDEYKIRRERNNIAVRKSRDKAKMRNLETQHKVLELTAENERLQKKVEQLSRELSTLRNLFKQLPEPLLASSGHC

Chain of C/EBPbeta isoform LIP (Flag-LIP), P17676-3 (P17676 199-345): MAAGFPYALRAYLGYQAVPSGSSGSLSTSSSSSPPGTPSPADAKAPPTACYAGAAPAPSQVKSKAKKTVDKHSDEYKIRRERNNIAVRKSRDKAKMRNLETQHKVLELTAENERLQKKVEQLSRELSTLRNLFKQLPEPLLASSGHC

Sequence | Kd [1] | Kd [2]
GCTTGCTTGCTTAAAGACCT (double strand) [DS1C/A C/EBP site] | 5.1 10^-7 M | 24.8 10^-7 M
GCTTGCTTGCTTAAAGCCCT (double strand) [DS1 wild-type C/EBP site] | 17.5 10^-7 M | 50 10^-7 M

— paper PMC3428313
